Experimental data: publication PMC3227520 (Biochemistry, 2011)
Read-outs that look alike come from different tables or passages of the source. Each block holds one binder with its values, some of them ahead of it. Primed or numbered codes have the meaning given here. *: point of attachment. FITC = O=C1OC2(c3ccc(O)cc3Oc3cc(O)ccc32)c2ccc(NC(=S)*)cc21; FITC′ = fluorescein isothiocyanate label; Ahx = NCCCCCC(=O)O

B2: wild-type S100A4 (native noncovalent S100A4 dimer) (natural protein)
chain: not shown
B3: FITC-MIIA^1904–1927 (nonmuscle myosin-IIA 24mer peptide) (peptide)
peptide: {FITC-Ahx}-TETADAMNREVSSLKNKLRRGDLP-NH2
SMILES: CSCC[C@H](NC(=O)[C@H](C)NC(=O)[C@H](CC(=O)O)NC(=O)[C@H](C)NC(=O)[C@@H](NC(=O)[C@H](CCC(=O)O)NC(=O)[C@@H](NC(=O)CCCCCNC(=S)Nc1ccc2c(c1)C(=O)OC21c2ccc(O)cc2Oc2cc(O)ccc21)[C@@H](C)O)[C@@H](C)O)C(=O)N[C@@H](CC(N)=O)C(=O)N[C@@H](CCCNC(=N)N)C(=O)N[C@@H](CCC(=O)O)C(=O)N[C@H](C(=O)N[C@@H](CO)C(=O)N[C@@H](CO)C(=O)N[C@@H](CC(C)C)C(=O)N[C@@H](CCCCN)C(=O)N[C@@H](CC(N)=O)C(=O)N[C@@H](CCCCN)C(=O)N[C@@H](CC(C)C)C(=O)N[C@@H](CCCNC(=N)N)C(=O)N[C@@H](CCCNC(=N)N)C(=O)NCC(=O)N[C@@H](CC(=O)O)C(=O)N[C@@H](CC(C)C)C(=O)N1CCC[C@H]1C(N)=O)C(C)C

Assays:
[1] = molecular target: B2; test: fluorescence polarisation
[2] = molecular target: B3; test: fluorescence polarisation
[3] = molecular target: B2; test: fluorescence polarisation; remark: listed apart in the source
cross-linking = molecular target: the molecule itself; test: cross-linking

Kd [1]: 1800 ± 200 nM
B1: FITC-MIIA^1908–1923 (nonmuscle myosin-IIA peptide, minimal S100A4 binding site) (peptide)
peptide: {FITC′-Ahx}-DAMNREVSSLKNKLRR-NH2

Binder: B2
stoichiometry N [2]: 1 S100A4 dimer per peptide

Binder: B3
Kd [3]: 260 ± 30 nM

B4: MIIA^1851–1960 (nonmuscle myosin-IIA heavy chain fragment) (domain or fragment, UniProt P35579 1851-1960, looked up)
chain: VDDERRNAEQYKDQADKASTRLKQLKRQLEEAEEEAQRANASRRKLQRELEDATETADAMNREVSSLKNKLRRGDLPFVVPRRMARKGAGDGSDEEVDGKADGAEAKPAE
stoichiometry N (cross-linking): 2
